Assay results: patent US20210169980A1
pKd: −log10 of the molar value.

Target: GABARAP (human) (UniProt O95166)
Experiment: ITC, GABARAP titrated into the peptide

GABARAP (human), sequence (O95166 whole entry): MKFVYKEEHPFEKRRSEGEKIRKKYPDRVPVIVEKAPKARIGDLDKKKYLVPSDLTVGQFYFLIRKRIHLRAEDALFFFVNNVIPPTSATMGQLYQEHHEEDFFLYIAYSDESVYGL

pKd: 6.20
Substance: FAM134B LIR-L E462R (peptide)
